This note sets out measurements from the supplement of paper PMC10567573.

The labels stand for the following.
B1: FOXJ1 (parent)
chain: SAIYKWITDNFCYFRHADPTWQNS
B2: ADD1 (parent)
chain: FASDGDSGTCSPLRHSFQKQQREK
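Also: lentivirally expressed fusions sorted by FACS into six bins by GFP to DsRed ratio, PSI derived from sequencing read proportions per bin multiplied by bin number.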

In the first data set the parent is B1. The data set is described as follows: protein stability index of a GFP-peptide fusion (GPS, HEK-293T) (PSI 1-6); higher = more stable. The settings on record: c terminus: a fixed tail appended.
For SAIYKWITDNFCYFRPADPTWQNS, the protein stability index worked out at 3.62.
As for SAIYKWITDNFCYFRYADPTWQNS, the protein stability index is 2.27.
Still for that read-out and setting: the same measure for NAIYKWITDNFCYFRHADPTWQNS: 2.5; for FAIYKWITDNFCYFRHADPTWQNS: 3.6; for GAIYKWITDNFCYFRHADPTWQNS: 3.32.
Same read-out and setting: with DAIYKWITDNFCYFRHADPTWQNS the figure was 3.17; with QAIYKWITDNFCYFRHADPTWQNS, 2.31.
Same read-out and setting: with KAIYKWITDNFCYFRHADPTWQNS the figure was 3.58; with SAIYKWITDNFCYFRHADPTWQNK, 2.17; with SAIYKWITDNFCYFRHADPTWQNN, 3.76.
As to SAIYKWITDNFCYFRHADPTWQNP, the protein stability index worked out at 3.85.
Still for that read-out and setting: the same measure for SAIYKWITDNFCYFRHADPTWQNH: 2.34; for SAIYKWITDNFCYFRHADPTWQNF: 3.32; for SAIYDWITDNFCYFRHADPTWQNS: 3.42.
The same measure, in the same setting: the same measure for SAIYVWITDNFCYFRHADPTWQNS: 3.36; for SAIYKIITDNFCYFRHADPTWQNS: 3.22.
Still for that read-out and setting: with SAIYKAITDNFCYFRHADPTWQNS the figure was 1.66.
Take SAIYKTITDNFCYFRHADPTWQNS: the protein stability index is 1.43.
In the case of SARYKWITDNFCYFRHADPTWQNS, the protein stability index turned out to be 1.78.
The same measure, in the same setting: the same measure for SAWYKWITDNFCYFRHADPTWQNS: 2.41.
Still for that read-out and setting: with SAVYKWITDNFCYFRHADPTWQNS the figure was 3.81.
Still for that read-out and setting: the same measure for SAEYKWITDNFCYFRHADPTWQNS: 1.67.
Take SAFYKWITDNFCYFRHADPTWQNS: the protein stability index stood at 1.87.
Regarding SAIWKWITDNFCYFRHADPTWQNS, the protein stability index is 2.97.
Same read-out and setting: the same measure for SAIYKWRTDNFCYFRHADPTWQNS: 1.79.
In the case of SAIYKWITDNFCSFRHADPTWQNS, the protein stability index turned out to be 2.2.
For SAIYKWITDNFCGFRHADPTWQNS, the protein stability index was found to be 3.62.
The same measure, in the same setting: with SAIYKWITDNFCMFRHADPTWQNS the figure was 2.87; with SAIYKWITDGFCYFRHADPTWQNS, 1.42.
The same measure, in the same setting: the same measure for SAIYKWITDLFCYFRHADPTWQNS: 3.56; for SAIYKWITDDFCYFRHADPTWQNS: 1.58; for SAIYKWITDEFCYFRHADPTWQNS: 2.62.
Regarding SAIYKWITDNFCYFRHADPTWQVS, the protein stability index was found to be 2.39.
Same read-out and setting: with SAIYKWITDNFCYFRHADPTWQLS the figure was 2.46; with SAIYKWITDNVCYFRHADPTWQNS, 3.51.
SAIYKWITDNWCYFRHADPTWQNS: the protein stability index came out at 2.53.
The same measure, in the same setting: with SAIYKWITDNKCYFRHADPTWQNS the figure was 2.08; with SAIYKWITDNFCYFRHAGPTWQNS, 2.24; with SAIYKWITDNFCYFRHAIPTWQNS, 2.82.
As to SAIYKWITDNFCYFRHAVPTWQNS, the protein stability index amounted to 2.75.
Same read-out and setting: the same measure for SAIYKWITDNFCYFRHAQPTWQNS: 2.86; for SAIYKWITDNFCYFRHALPTWQNS: 2.74; for SAIYKWITDNFCYFRHADPTWFNS: 3.37.
Still for that read-out and setting: with SAIYKWITDNFCYFRHGDPTWQNS the figure was 1.74.
The same measure, in the same setting: the same measure for SAIYKWITDNFCYFRHCDPTWQNS: 3.02; for SAIYKWITDNFCYFRHSDPTWQNS: 2.61.
For the variant SAIYKWITDNFCYFRHRDPTWQNS, the protein stability index stood at 3.34.
Still for that read-out and setting: with SAIYKWITDNFCYFRHADPDWQNS the figure was 2.67.
On the same count and under the same terms, the same measure for SAIYKWITDNFCYFRHADPSWQNS: 3.35; for SAIYKWITDNFCYFRHADPPWQNS: 3.38; for SAIYKWITDNFCYFRHADPTVQNS: 3.94.
Turning to SAIYKWITDNFCYFRHADPTDQNS, the protein stability index worked out at 2.94.
Still for that read-out and setting: the same measure for SAIYKWITDNFCYFYHADPTWQNS: 2.33; for SAIYKWITDNFCYFDHADPTWQNS: 2.25.
On the same count and under the same terms, with SAIYKWIHDNFCYFRHADPTWQNS the figure was 3.34; with SAIYKWIADNFCYFRHADPTWQNS, 3.42.
Still for that read-out and setting: with SAIYKWIMDNFCYFRHADPTWQNS the figure was 3.27; with SQIYKWITDNFCYFRHADPTWQNS, 2.49.
For the variant SPIYKWITDNFCYFRHADPTWQNS, the protein stability index came to 3.53.
Same read-out and setting: with SYIYKWITDNFCYFRHADPTWQNS the figure was 2.04.
SAIYKWITDNFTYFRHADPTWQNS: the protein stability index came to 3.14.
As to SAIYKWITDNFVYFRHADPTWQNS, the protein stability index turned out to be 2.69.
On the same count and under the same terms, the same measure for SAIYKWITHNFCYFRHADPTWQNS: 4.47.
On the same count and under the same terms, with SAIYKWITCNFCYFRHADPTWQNS the figure was 4.21; with SAIYKWITDNFCYFRHADKTWQNS, 3.4; with SAIYKWITDNFCYFRHADITWQNS, 3.63.
Same read-out and setting: with SAIYKWITDNFCYFRHADGTWQNS the figure was 2.04.
Regarding SAIYKWITDNFCYFRHADTTWQNS, the protein stability index is 4.32.

Variants of B2 are the subject of a further data set. Described as above. Conditions: c terminus: a fixed tail appended.
On to FASDGDKGTCSPLRHSFQKQQREK, for which the protein stability index came to 3.69.
Same read-out and setting: the same measure for FASDGDHGTCSPLRHSFQKQQREK: 3.42.
As for FASDGDFGTCSPLRHSFQKQQREK, the protein stability index turned out to be 2.72.
For FASDGDAGTCSPLRHSFQKQQREK, the protein stability index came out at 3.82.
As for FASDGDNGTCSPLRHSFQKQQREK, the protein stability index is 4.14.
Same read-out and setting: the same measure for FASDGDGGTCSPLRHSFQKQQREK: 3.46; for FASDGDDGTCSPLRHSFQKQQREK: 4.18; for FASDGDIGTCSPLRHSFQKQQREK: 1.49.
The same measure, in the same setting: the same measure for FASDGDEGTCSPLRHSFQKQQREK: 4.26.
Same read-out and setting: the same measure for FASDGDMGTCSPLRHSFQKQQREK: 3.14; for FASDGDLGTCSPLRHSFQKQQREK: 2.11; for FASDGDCGTCSPLRHSFQKQQREK: 2.96.
With FCSDGDSGTCSPLRHSFQKQQREK, the protein stability index came out at 3.54.
Same read-out and setting: the same measure for FGSDGDSGTCSPLRHSFQKQQREK: 4.11.
The same measure, in the same setting: the same measure for FQSDGDSGTCSPLRHSFQKQQREK: 3.61; for FTSDGDSGTCSPLRHSFQKQQREK: 4.39; for FNSDGDSGTCSPLRHSFQKQQREK: 4.79.
On the same count and under the same terms, the same measure for FSSDGDSGTCSPLRHSFQKQQREK: 4.47; for FVSDGDSGTCSPLRHSFQKQQREK: 3.07.
With FDSDGDSGTCSPLRHSFQKQQREK, the protein stability index was 5.17.
Still for that read-out and setting: the same measure for FFSDGDSGTCSPLRHSFQKQQREK: 4.6; for FPSDGDSGTCSPLRHSFQKQQREK: 4.27.
In the case of FMSDGDSGTCSPLRHSFQKQQREK, the protein stability index was 3.86.
Still for that read-out and setting: the same measure for FISDGDSGTCSPLRHSFQKQQREK: 2.84; for FKSDGDSGTCSPLRHSFQKQQREK: 4.66; for FESDGDSGTCSPLRHSFQKQQREK: 5.18.
